In patent US20250255816A1, “POLYSULFIDE MICROPARTICLES AND USES THEREOF” (Vanderbilt University, priority 2022, published 2025):

Legend:
[1] = system: retinal reactive oxygen species (ROS); assay: Retinal ROS levels by Amplex Red dye in mouse MOM model of glaucoma; set-up: species or system C57/B16 mice; details: intravitreal injection, 6 weeks post-MP injection, ex vivo
Method: (§1) Poly(propylene sulfide-co-ethylene sulfide) (PPSES) was synthesized using ring opening polymerization with an equimolar feed of each monomer. EPO-loaded MPs were formulated by first producing EPO-loaded dextran nanoparticles and loading these into PPSES MPs. The S/O/W technique was used to load EPO. To establish the microbead occlusion model (MOM, FIG. 10) of glaucoma, polystyrene beads were injected into the anterior chamber of C57/B16 mice. Saline-injected mice served as healthy controls. After 1 week, phosphate buffered saline (PBS)-free EPO, blank MPs, or EPO-loaded MPs were injected intravitreally. At 6 weeks post-MP injection, electroretinograms (ERGs) and visual evoked potential (VEP) tests were performed intravitally. Retinal tissue was evaluated ex vivo for EPO and ROS levels using ELISA and Amplex Red dye, respectively.

[2] = free protein, intravitreal; cited from earlier work
[3] = Retinal EPO levels by ELISA in mouse microbead occlusion model (MOM) of glaucoma; set-up: species or system C57/B16 mice; details: intravitreal injection, 6 weeks post-MP injection, ELISA of retinal tissue ex vivo
Method: as §1

Substance: Erythropoietin [EPO]
- retinal ROS levels [1]: Both groups outperformed free EPO
- half-life intravitreally [2]: ~72 h
- retinal EPO levels (sustained EPO release) [3]: not different from PBS animals
